In paper PMC8329185 (2021):

Molecular target: His6-DNAJB1 (human, UniProt P25685 1-340)
Assay: SPR

Sequence of His6-DNAJB1 (P25685 whole entry): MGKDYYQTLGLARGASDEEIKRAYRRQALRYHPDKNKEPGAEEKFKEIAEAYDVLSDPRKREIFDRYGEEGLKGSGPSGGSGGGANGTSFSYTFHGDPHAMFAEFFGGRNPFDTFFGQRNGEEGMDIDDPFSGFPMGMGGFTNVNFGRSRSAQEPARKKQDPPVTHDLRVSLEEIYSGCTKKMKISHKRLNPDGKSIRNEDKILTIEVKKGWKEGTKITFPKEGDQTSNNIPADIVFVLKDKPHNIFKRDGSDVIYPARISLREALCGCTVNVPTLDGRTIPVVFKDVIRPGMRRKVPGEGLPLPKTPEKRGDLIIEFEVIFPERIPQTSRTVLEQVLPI

koff: 0.00014 s⁻¹
B1: GST-TrnSR (WT, without mCherry) (natural protein)
chain: MEGAKPTLQLVYQAVQALYHDPDPSGKERASFWLGELQRSVHAWEISDQLLQIRQDVESCYFAAQTMKMKIQTSFYELPTDSHASLRDSLLTHIQNLKDLSPVIVTQLALAIADLALQMPSWKGCVQTLVEKYSNDVTSLPFLLEILTVLPEEVHSRSLRIGANRRTEIIEDLAFYSSTVVSLLMTCVEKAGTDEKMLMKVFRCLGSWFNLGVLDSNFMANNKLLALLFEVLQQDKTSSNLHEAASDCVCSALYAIENVETNLPLAMQLFQGVLTLETAYHMAVAREDLDKVLNYCRIFTELCETFLEKIVCTPGQGLGDLRTLELLLICAGHPQYEVVEISFNFWYRLGEHLYKTNDEVIHGIFKAYIQRLLHALARHCQLEPDHEGVPEETDDFGEFRMRVSDLVKDLIFLIGSMECFAQLYSTLKEGNPPWEVTEAVLFIMAAIAKSVDPENNPTLVEVLEGVVRLPETVHTAVRYTSIELVGEMSEVVDRNPQFLDPVLGYLMKGLCEKPLASAAAKAIHNICSVCRDHMAQHFNGLLEIARSLDSFLLSPEAAVGLLKGTALVLARLPLDKITECLSELCSVQVMALKKLLSQEPSNGISSDPTVFLDRLAVIFRHTNPIVENGQTHPCQKVIQEIWPVLSETLNKHRADNRIVERCCRCLRFAVRCVGKGSAALLQPLVTQMVNVYHVHQHSCFLYLGSILVDEYGMEEGCRQGLLDMLQALCIPTFQLLEQQNGLQNHPDTVDDLFRLATRFIQRSPVTLLRSQVVIPILQWAIASTTLDHRDANCSVMRFLRDLIHTGVANDHEEDFELRKELIGQVMNQLGQQLVSQLLHTCCFCLPPYTLPDVAEVLWEIMQVDRPTFCRWLENSLKGLPKETTVGAVTVTHKQLTDFHKQVTSAEECKQVCWALRDFTRLFR
